In US20110262931A1 (published 2011):

Target: T1, mast cell carboxypeptidase purified from human skin (human, UniProt P15088 110-417)
T1 construct: also called human skin carboxypeptidase; carboxypeptidase purified from skin
T1 sequence (looked up): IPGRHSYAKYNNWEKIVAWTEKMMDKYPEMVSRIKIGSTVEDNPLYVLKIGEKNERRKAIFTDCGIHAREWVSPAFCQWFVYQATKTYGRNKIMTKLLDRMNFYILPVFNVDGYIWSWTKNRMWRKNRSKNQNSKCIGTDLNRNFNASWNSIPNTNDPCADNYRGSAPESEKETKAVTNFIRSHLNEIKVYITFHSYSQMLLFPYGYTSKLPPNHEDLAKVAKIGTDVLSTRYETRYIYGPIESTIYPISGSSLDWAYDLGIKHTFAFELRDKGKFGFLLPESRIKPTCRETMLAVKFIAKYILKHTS
Assay: affinity chromatography on PCI-agarose
Procedure: Mast cell carboxypeptidase was purified from finely chopped extracts of human skin (obtained from macroscopically normal tissue at leg amputation) using a method adapted from that of Goldstein et al. (1989, ibid). […] After washing the column, carboxypeptidase was eluted with unconjugated PCI and dialysed to remove the inhibitor. The purity of the enzyme preparation was assessed by SDS-PAGE and silver staining (Pierce, Rockford, Ill., USA). Proteolytic activity was determined by monitoring the cleavage of […] hippuryl-Phe-Arg (Sigma) at 260 nm.

binding result: binds
Binder: QQHADPICNKPCKTHDDCSGAWFCQACWNSARTCGPYVG (other, UniProt P01075 1-39, looked up, also called PCI) [potato tuber carboxypeptidase inhibitor]
